In patent US20170355769A1 (AbbVie / Abbott, published 2017):
Values belong to the binder of their own block, whether it stands above or below them.

Legend:
[1] = target: T1, Cyno B7-H3-ECD (his tag) (cynomolgus); experiment: SPR, mAb captured, ECD analyte
T1 construct: SPR analyte; also called soluble ECD of cyno B7-H3
T1 chain: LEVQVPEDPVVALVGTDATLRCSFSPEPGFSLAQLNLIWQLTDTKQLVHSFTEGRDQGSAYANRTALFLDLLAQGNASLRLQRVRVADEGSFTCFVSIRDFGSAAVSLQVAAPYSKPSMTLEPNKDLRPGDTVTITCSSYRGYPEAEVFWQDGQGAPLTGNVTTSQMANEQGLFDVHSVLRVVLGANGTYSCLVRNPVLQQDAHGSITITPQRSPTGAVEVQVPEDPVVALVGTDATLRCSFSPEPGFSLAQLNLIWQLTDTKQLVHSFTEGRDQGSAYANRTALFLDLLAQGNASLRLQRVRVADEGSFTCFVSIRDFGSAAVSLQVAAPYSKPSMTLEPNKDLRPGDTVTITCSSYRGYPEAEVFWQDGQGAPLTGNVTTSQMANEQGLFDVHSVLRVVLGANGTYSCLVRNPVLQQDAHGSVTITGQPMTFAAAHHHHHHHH

[2] = target: T2, Human B7-H3-ECD (His tag) (human, UniProt Q5ZPR3 29-461); experiment: SPR, mAb captured, ECD analyte
T2 construct: SPR analyte; also called huB7-H3; soluble ECD of human B7-H3
T2 sequence: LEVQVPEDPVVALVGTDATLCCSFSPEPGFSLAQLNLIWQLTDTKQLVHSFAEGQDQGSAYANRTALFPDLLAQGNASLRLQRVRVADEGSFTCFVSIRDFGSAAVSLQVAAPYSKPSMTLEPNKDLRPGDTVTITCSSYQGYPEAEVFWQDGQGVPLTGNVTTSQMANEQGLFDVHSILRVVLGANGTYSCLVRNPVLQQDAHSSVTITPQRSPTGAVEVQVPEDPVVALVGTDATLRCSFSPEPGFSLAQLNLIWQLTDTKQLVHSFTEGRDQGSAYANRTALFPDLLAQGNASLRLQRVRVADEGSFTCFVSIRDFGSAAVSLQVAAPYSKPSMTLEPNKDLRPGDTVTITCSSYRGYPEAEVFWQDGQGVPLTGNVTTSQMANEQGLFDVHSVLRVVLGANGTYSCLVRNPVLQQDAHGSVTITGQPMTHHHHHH

[3] = target: T3, Cynomolgous B7-H3 on cells (cynomolgus); experiment: FACS, 3T12 transfectants
T3 construct: whole, on cells; also called cyB7-H3; cyno B7-H3
Description: (§1) A selection of hits were subcloned using the MoFlo (Beckman, Indianapolis, Ind., US) by depositing a single cell per well into 96 well cell culture plates to ensure clonality of the cell line. Resulting colonies were screened for specificity by FACS using mouse 3T12 fibroblast cell lines expressing the human B7-H3, cynomolgous B7-H3 or mouse B7-H3. Isotype of each monoclonal antibody was determined using the Mouse Monoclonal Isostyping Kit (Roche, No. 11-493-027-001, Indianapolis, Ind., USA).

[4] = target: T4, Mouse B7-H3 on cells (mouse, UniProt Q8VE98 29-316); experiment: FACS, 3T12 transfectants
T4 construct: whole, on cells
T4 sequence (looked up): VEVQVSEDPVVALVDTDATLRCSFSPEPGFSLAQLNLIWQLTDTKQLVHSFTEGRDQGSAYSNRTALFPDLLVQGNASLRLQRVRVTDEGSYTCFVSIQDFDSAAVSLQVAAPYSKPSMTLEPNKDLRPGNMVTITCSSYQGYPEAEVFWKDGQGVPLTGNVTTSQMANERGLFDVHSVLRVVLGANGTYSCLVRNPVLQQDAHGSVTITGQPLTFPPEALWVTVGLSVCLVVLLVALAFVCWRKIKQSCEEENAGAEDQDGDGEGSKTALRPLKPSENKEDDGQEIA
Description: as §1

[5] = target: T5, Human full length B7-H3 (human, UniProt Q5ZPR3 29-534); experiment: FACS, 3T12 transfectants
T5 construct: On 3T12 fibroblasts expressing full length human B7-H3 or on NCI-H1650 cells; signal peptide residues 1-28 stated; also called huB7-H3; CD276
T5 sequence: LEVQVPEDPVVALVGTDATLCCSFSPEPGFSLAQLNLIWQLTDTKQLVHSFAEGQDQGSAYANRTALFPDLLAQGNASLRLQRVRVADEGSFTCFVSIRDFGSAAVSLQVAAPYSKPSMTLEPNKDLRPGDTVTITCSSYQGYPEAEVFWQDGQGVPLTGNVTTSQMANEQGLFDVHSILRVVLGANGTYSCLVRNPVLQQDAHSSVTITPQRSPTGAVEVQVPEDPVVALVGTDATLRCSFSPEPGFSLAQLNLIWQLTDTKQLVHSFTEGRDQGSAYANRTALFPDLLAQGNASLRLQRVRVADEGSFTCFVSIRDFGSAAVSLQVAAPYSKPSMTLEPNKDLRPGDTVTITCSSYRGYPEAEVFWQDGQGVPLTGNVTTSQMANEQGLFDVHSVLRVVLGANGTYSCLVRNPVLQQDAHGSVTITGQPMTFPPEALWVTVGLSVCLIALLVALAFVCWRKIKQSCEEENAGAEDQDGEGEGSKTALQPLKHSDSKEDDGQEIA
Description: as §1

B3: Ab10 (antibody, V domains shown)
VH: DVQLQESGPGLVKPSQSLSLTCTVTGYSITSDYAWNWIRQFPGNRLEWMGHINYSGITNYNPSLKSRISITRDTSKNQFFLQLYSVTTEDTATYFCARRSLFYYYGSSLYAMDYWGQGTSVTVSS
VL: DVVMTQSPFSLPVSLGDQASISCRSSQSLVHSNGNTYLHWYLQKPGQSPKLLIYKVSNRFSGVPDRFSGSGSGTDFTLKISRVEAEDLGVYFCSQSTHVPWTFGGGTKLEIK
notes: mouse IgG2b/k
- Kd [1]: 20 nM
- koff [1]: 0.0042 s⁻¹
- kon [1]: 200000 M⁻¹ s⁻¹
- Kd [2]: 4.6 nM
- koff [2]: 0.00019 s⁻¹
- kon [2]: 41000 M⁻¹ s⁻¹
- EC50 [3]: 4.46 nM
- EC50 [4]: 3.8 nM
- EC50 [5]: 3.97 nM

B4: Ab4 (antibody, mouse IgG2b, V domains shown)
VH: QVQLQQPGAELVKPGASVKLSCKASGYSFTSYWMHWVKQRPGQGLEWIGMIHPNSGSNNYNEKFKSKATLTVDKSSNTAYMQLSSLTSEDSAVYYCARRLGLHFDYWGQGTTLTVSS
VL: DIVMTQSQKFMSTPVGDRVSITCKASQNVGTAVAWYQQKPGQSPKLLIYSASNRYTGVPDRFTGSGSGTDFTLTISNMQSEDLADYFCQQYSSYPYTFGGGTKLEIK
notes: mouse IgG2b/k
- Kd [1]: 1.8 nM
- koff [1]: 0.00096 s⁻¹
- kon [1]: 540000 M⁻¹ s⁻¹
- Kd [2]: 1.6 nM
- koff [2]: 0.0011 s⁻¹
- kon [2]: 690000 M⁻¹ s⁻¹
- EC50 [3]: 3.1 nM
- EC50 [4]: 1.75 nM
- EC50 [5]: 4.06 nM

B5: Ab14 (antibody, mouse IgG1, V domains shown)
VH: EVKLVESGGGLVKPGGSLKLSCAASGFTFSSYGMSWVRQTPEKRLEWVATISGGGTNTYYPDSVEGRFTISRDNAKNFLYLQMSSLRSEDTALYYCARHYGSQTMDYWGQGTSVTVSS
VL: DIQMTQSPASLSASVGETVTITCRTSGNIHNYLTWYQQKQGKSPQLLVYNAKTLADGVPSRFSGSGSGTQFSLKINSLQPEDFGSYYCQHFWSIMWTFGGGTKLEIK
notes: mouse IgG1/k
- Kd [1]: 4.3 nM
- koff [1]: 0.003 s⁻¹
- kon [1]: 690000 M⁻¹ s⁻¹
- Kd [2]: 13 nM
- koff [2]: 0.0014 s⁻¹
- kon [2]: 110000 M⁻¹ s⁻¹
- EC50 [3]: 2.97 nM
- EC50 [4]: 102 nM
- EC50 [5]: 3.03 nM

Continued, values first:

- Kd [1]: 8.4 nM
- koff [1]: 0.0037 s⁻¹
- kon [1]: 440000 M⁻¹ s⁻¹
- Kd [2]: 17 nM
- koff [2]: 0.0058 s⁻¹
- kon [2]: 330000 M⁻¹ s⁻¹
- EC50 [3]: 4.12 nM
- EC50 [4]: 25.8 nM
- EC50 [5]: 1.94 nM
B1: Ab13 (antibody, mouse IgG1, V domains shown)
VH: DVQLQESGPDLVKPSQSLSLTCTVTGYSITSGYSWHWIRQFPGNKLEWMGYIHSSGSTNYNPSLKSRISINRDTSKNQFFLQLNSVTTEDTATYYCAGYDDYFEYWGQGTTLTVSS
VL: DIVMTQSQKFMSTSVGDRVSVTCKASQNVGFNVAWYQQKPGQSPKALIYSASYRYSGVPDRFTGSGSGTDFTLTISNVQSEDLAEYFCQQYNSYPFTFGSGTKLEIK
notes: mouse IgG1/k

- Kd [1]: ≤ 0.18 nM
- koff [1]: ≤ 1e-05 s⁻¹
- kon [1]: 55000 M⁻¹ s⁻¹
- Kd [2]: 6.7 nM
- koff [2]: 0.00025 s⁻¹
- kon [2]: 38000 M⁻¹ s⁻¹
- EC50 [3]: 6.71 nM
- EC50 [4]: 8.72 nM
- EC50 [5]: 3.88 nM
B2: Ab12 (antibody, mouse IgG1, V domains shown)
VH: EVQLVESGGGLVKPGGSLKLSCAASGFTFSSYAMSWVRQTPEKRLEWVATISSGTNYTYYPDSVKGRFTISRDNAKNTLYLQMTSLRSEDTAMYYCARQGRYSWIAYWGQGTLVTVSA
VL: DIVLTQSPASLAVSLGQRATISCRASKSVSTSDYSYMHWNQQKPGQPPKLLIYLASNLESGVPARFSGSGSGTDFTLNIHPVEEEDAATYYCQHSRELLTFGAGTKLELK
notes: mouse IgG1/k
